Where “and” joins values, the source holds several entries; their conditions need not be identical. Identical values can stand only once. Each block holds one binder with its values, some of them ahead of it. Where no end group is shown, it is not given here. [ ]: non-standard residue; d: D form. pGlu = O=C1CC[C@@H](C(=O)O)N1
Tests used:
[1] = molecular target: T1, Human IGF-1R (HIGF-1R), purified from BHK cells stably transfected with IGF-1R cDNA (human, UniProt P08069 31-1367); assay: cell-based or functional assay
T1 sequence (P08069 31-1367 limits assumed): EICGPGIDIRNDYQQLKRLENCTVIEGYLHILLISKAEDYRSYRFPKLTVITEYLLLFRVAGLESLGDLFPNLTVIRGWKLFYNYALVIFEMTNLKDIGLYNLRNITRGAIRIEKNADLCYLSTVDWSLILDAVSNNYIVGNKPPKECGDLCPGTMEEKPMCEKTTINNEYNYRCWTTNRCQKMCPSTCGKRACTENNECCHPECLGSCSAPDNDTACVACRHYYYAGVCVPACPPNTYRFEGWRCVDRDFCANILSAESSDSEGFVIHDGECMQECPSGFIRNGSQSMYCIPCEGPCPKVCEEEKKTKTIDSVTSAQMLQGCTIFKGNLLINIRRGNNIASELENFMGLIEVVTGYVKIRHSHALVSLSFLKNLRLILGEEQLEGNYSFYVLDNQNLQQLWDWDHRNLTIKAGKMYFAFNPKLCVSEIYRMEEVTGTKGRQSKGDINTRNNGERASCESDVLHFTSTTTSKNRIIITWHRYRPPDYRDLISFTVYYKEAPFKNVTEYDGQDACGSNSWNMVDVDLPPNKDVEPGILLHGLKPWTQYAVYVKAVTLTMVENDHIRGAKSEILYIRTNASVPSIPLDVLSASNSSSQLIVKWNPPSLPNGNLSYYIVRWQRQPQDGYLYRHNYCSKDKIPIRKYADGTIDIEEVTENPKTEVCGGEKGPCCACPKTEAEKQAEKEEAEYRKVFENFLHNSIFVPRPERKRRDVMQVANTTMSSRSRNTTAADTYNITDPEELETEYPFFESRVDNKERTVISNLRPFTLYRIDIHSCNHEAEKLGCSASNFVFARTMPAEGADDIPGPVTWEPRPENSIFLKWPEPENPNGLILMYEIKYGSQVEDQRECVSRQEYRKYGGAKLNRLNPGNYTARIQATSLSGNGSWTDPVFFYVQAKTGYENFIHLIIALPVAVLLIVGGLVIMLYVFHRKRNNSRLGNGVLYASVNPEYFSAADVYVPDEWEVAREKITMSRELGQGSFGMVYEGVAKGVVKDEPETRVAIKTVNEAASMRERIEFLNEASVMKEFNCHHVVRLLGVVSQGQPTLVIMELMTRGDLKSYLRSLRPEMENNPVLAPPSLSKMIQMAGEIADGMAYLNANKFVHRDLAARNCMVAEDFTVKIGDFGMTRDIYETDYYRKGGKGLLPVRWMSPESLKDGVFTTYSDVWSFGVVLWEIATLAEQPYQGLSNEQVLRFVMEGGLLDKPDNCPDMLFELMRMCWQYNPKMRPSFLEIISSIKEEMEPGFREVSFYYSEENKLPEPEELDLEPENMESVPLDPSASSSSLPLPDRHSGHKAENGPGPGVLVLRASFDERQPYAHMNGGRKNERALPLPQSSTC

IGF-1R on L6 cells [2] = assay: cell-based or functional assay
Target sequence in this assay (P24062 31-737, chain 1 of 2): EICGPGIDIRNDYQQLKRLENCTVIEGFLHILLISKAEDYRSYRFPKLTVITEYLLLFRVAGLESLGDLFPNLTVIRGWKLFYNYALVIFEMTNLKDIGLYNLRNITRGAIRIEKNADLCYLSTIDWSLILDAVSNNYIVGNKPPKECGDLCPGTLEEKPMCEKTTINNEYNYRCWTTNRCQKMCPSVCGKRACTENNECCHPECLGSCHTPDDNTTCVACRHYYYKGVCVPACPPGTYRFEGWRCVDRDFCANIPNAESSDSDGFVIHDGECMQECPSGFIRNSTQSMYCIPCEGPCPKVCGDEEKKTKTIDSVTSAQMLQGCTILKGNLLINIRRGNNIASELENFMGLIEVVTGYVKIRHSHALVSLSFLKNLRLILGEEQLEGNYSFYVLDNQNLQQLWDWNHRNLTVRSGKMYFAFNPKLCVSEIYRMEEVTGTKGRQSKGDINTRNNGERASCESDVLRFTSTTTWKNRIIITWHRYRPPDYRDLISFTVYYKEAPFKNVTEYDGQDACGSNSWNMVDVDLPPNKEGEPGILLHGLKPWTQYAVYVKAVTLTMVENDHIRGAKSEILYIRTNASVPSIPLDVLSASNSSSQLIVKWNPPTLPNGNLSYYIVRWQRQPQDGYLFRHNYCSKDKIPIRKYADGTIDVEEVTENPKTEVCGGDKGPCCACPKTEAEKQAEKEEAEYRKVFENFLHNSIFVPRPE
Target sequence in this assay (P24062 742-1370, chain 2 of 2): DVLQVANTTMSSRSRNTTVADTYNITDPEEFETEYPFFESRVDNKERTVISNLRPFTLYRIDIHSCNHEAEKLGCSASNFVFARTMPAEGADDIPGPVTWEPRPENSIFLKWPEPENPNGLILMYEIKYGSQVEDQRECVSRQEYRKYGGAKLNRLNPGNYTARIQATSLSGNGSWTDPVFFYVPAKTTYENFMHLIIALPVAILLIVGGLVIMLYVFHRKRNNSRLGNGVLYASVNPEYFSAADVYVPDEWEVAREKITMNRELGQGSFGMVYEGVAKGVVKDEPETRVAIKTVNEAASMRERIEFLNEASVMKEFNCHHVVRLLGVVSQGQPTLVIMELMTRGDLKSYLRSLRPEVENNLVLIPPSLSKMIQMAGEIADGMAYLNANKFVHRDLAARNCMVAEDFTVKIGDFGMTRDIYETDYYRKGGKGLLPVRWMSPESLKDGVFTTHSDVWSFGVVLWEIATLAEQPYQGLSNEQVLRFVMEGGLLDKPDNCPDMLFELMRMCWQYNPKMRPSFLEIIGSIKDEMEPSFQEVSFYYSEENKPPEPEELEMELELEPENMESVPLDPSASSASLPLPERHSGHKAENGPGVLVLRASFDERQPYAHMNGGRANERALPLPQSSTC

[3] = molecular target: IGF-1R on SW480, MCF-7 and MiaPaCa cells (human, UniProt P08069 31-1367); assay: cell-based or functional assay
IGF-1R on SW480, MCF-7 and MiaPaCa cells, sequence (P08069 31-1367): as the sequence (P08069 31-1367 limits assumed) above

[4] = molecular target: T1, Human IGF-1R (HIGF-1R), purified from …; assay: competition with 125I-IGF-1 on purified HIGF-1R (PEG or SPA assay; the sentence does not say which)
IGF-1R on SW480 cells [5] = molecular target: T2, IGF-1R on SW480 cells (UniProt P08069 31-1367, limits assumed); assay: cell-based or functional assay
T2 sequence (P08069 31-1367 limits assumed): as above

[6] = molecular target: Human IGF-1R (HIGF-1R), purified from BHK cells stably transfected with IGF-1R cDNA (human, UniProt P08069 31-1367); assay: cell-based or functional assay; remark: listed apart in the source
Target sequence in this assay (P08069 31-1367 limits assumed): as above

[7] = molecular target: T3, IGF-1R on MCF-7 cells (MCF-7S8, MCF7) (human, UniProt P08069 31-1367); assay: cell-based or functional assay
T3 sequence (P08069 31-1367): as the sequence (P08069 31-1367 limits assumed) above

IGF-1R on SW480 cells [8] = molecular target: T2, IGF-1R on SW480 cells; assay: cell-based or functional assay; remark: listed apart in the source
[9] = molecular target: T3, IGF-1R on MCF-7 cells (MCF-7S8, MCF7); assay: cell-based or functional assay; remark: listed apart in the source
IGF-1R on L6 cells [10] = assay: cell-based or functional assay; remark: listed apart in the source
[11] = molecular target: T4, His-tagged soluble recombinant human IGF-IR (srhIGF-1R-his; R&D systems) (human, UniProt P08069 31-935); assay: AlphaScreen competition with biotinylated hIGF-1 on srhIGF-1R-his
T4 construct: extracellular domain; Bought protein; also called extra-cellular domain of IGF-1R; not shown: His tag
T4 sequence (P08069 31-935): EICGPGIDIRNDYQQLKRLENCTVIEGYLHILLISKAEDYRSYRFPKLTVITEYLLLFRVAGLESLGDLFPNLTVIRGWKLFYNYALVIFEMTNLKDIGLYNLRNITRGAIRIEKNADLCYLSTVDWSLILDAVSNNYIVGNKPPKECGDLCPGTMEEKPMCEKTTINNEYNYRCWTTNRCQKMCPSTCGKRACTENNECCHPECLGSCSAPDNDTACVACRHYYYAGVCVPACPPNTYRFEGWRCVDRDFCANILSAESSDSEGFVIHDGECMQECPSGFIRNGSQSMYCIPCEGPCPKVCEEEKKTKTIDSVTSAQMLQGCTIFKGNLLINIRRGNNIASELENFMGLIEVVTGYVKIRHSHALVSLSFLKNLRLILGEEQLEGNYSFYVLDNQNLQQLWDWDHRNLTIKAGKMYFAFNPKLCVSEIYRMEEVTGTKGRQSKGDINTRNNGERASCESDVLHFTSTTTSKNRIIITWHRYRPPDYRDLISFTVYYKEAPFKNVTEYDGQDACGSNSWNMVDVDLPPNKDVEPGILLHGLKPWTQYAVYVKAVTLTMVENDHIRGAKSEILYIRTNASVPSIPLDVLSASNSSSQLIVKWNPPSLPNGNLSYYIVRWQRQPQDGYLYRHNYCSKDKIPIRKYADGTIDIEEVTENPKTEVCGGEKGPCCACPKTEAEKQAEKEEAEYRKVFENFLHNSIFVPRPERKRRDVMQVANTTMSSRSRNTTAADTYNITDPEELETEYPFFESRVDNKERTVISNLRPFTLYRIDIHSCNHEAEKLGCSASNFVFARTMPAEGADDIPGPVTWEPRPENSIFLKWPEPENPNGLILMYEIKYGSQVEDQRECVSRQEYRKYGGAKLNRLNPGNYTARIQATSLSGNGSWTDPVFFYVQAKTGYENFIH
Method: Binding Assays. […] Detection of the receptor ligand interaction was measured in an amplified luminescent proximity homogeneous assay (ALPHAScreen; BioSignal-Packard, Montreal). The assay was performed in 384-well Nunc™ white polystyrene microplates (Nalge Nunc International, Naperville, Ill.) with a final volume of 40 μL. […] Each concentration of competitor was assayed in duplicate. […] The second step of the assay was to add acceptor beads and the incubation continued for 0.5 hr. The final step was to add donor beads and the incubation continued for an additional 1 hr. […] Primary data were background corrected, normalized to buffer controls and then expressed as % Specific Binding. The data were fit to a four-parameter non-linear regression analysis (y=min+(max-min)/(1+10̂((log IC₅₀-x)*Hillslope))), which was used to determine IC₅₀ values. The Z′-factor for this assay is greater than 0.7 (Z′=1-(3σ++3σ−)/|μ+−μ−|) and the signal-to-background (SB) ratio was between 40 and 70.

IC50, IGF-1R kinase activation by IGF-1 [1]: 200 nM and 300 nM
B1: F259 (peptide)
peptide: SFYSCLESLVAGPAEKSRGQWEGCRK

IC50, growth of L6 cells stimulated by IGF-1 at 3 nM (IGF-1R on L6 cells [2]): > 10000 nM
IC50, phosphorylation of IGF-1R and MAPK42/44 in response to IGF-1 treatment (IGF-1R on L6 cells [2]): 500 nM
IC50, IGF-1 dependent growth in MCF-7 cells [3]: 10000 nM
Kd [4]: 90 nM
B2: F293 (peptide)
peptide: SFYSCLESLVQGPAEKSRGQWEGCRK

IC50 in SW480 (M) in presence of IGF-1 (IGF-1R on SW480 cells [5]): 5e-07 M
IC50 in SW480 (M), peptide alone (IGF-1R on SW480 cells [5]): > 1e-05 M
IC50 in kinase assay (M), IGF-1R kinase activation by 10 nM IGF-1 [6]: 8e-07 M
B3: F269 (peptide)
peptide: EVDRDCQARPCGDAANFYDWFGQQGTE

IC50, IGF-1 dependent growth in MCF-7 [3]: 500 nM
IC50, IGF-1 dependent growth in SW480 [3]: 150 nM
Kd [4]: 6 to 10 nM
B4: F138 (peptide)
peptide: QFYGCLLDLSLGVPSFGWRRRCITA

IC50 in MCF-7S8, in presence of IGF-1 [7]: 5000 nM and 2000 nM
IC50 in SW480 (M) in presence of IGF-1 (IGF-1R on SW480 cells [5]): 2e-06 M
IC50, IGF-1 (10 nM)-induced proliferation of SW480 cells, exp. 13262-014 (IGF-1R on SW480 cells [8]): > 10000 nM
B5: F259 (peptide)
peptide: SFYSCLESLVAGPAEKSRGQWEGCRK

IC50, IGF-1 dependent growth of SW480 [3]: 800 nM
B6: F392 (peptide)
peptide: QFYGCLLDLSLGVPSFGWKKKCITA

Kd [4]: 20 to 50 nM
B7: F230 (peptide)
peptide: ESFYSCLASLVAGTPWPKGGSWERCREE

IC50, IGF-1 dependent growth in SW480 [3]: 2000 nM
B8: F270 (peptide)
peptide: ESYGDCRDRPCGDAPNFYDWFVQQASE

IC50 in MCF-7S8, in presence of IGF-1 [7]: 2000 nM
IC50 in SW480 (M) in presence of IGF-1 (IGF-1R on SW480 cells [5]): 2e-06 M
IC50 in kinase assay (M), IGF-1R kinase activation by 10 nM IGF-1 [6]: 2e-07 M
B9: F207 (peptide)
peptide: EFGRGYGGDGGGYWSGYEWLAE

Kd [4]: 80 to 300 nM
B10: F215 (peptide)
peptide: ESFYSCLESLVNGPAEKSRGQWDGCRE

IC50, IGF-1 dependent growth in SW480 cells [3]: > 1000 nM
B11: F264 (peptide)
peptide: RQWDCRGRPCGDAESFYEWFDQQRS

MCF7 IC50 [9]: 240 nM and 180 nM
B12: F441 (peptide)
peptide: SFYDCLLDLSIGGPSSDWRRRCITA

IC50 in MCF-7S8, in presence of IGF-1 [7]: 10000 nM
IC50 in MCF-7S8, peptide alone [7]: > 10000 nM
IC50 in SW480 (M), peptide alone (IGF-1R on SW480 cells [5]): 1e-07 M
IC50 in kinase assay (M), IGF-1R kinase activation by 10 nM IGF-1 [6]: 1e-07 M
IC50, down regulation of 3 nM IGF-1 stimulation to basal level, IGF-IR, L6 cells (IGF-1R on L6 cells [10]): 500 nM
IC50, down regulation of 3 nM IGF-1 stimulation to basal level, IRS-1, L6 cells (IGF-1R on L6 cells [10]): > 1000 nM
IC50, down regulation of 3 nM IGF-1 stimulation to basal level, MAPK42, L6 cells (IGF-1R on L6 cells [10]): 1000 nM
IC50, down regulation of 3 nM IGF-1 stimulation to basal level, MAPK44, L6 cells (IGF-1R on L6 cells [10]): 500 nM
IC50, down regulation of 3 nM IGF-1 stimulation to basal level, PKB/Akt, L6 cells (IGF-1R on L6 cells [10]): > 1000 nM
IC50 [11]: 9 nM
B13: F293 (peptide)
peptide: SFYSCLESLVQGPAEKSRGQWEGCRK

IC50, IGF-1 dependent growth in SW480 [3]: 500 nM
B14: F138P (peptide)
peptide: [pGlu]FYGCLLDLSLGVPSFGWRRRCITA
modifications: cysteine pairing not given here

Kd [4]: 50 nM
B15: F364 (peptide)
peptide: FVQDDCRGRPCGDADSFYEWFDQQAGYGSSSRRAPQT

IC50, IGF-1 dependent growth of SW480 [3]: 500 nM and 1000 nM
B16: F428 (peptide)
peptide: DFYGCLLDLSLGVPSLGWRRRCIT
notes: also called Peptide 428

IC50 [11]: 2700 nM
B17: RP6 (peptide)
peptide: TFYSCLASLLTGTPQPNRGPWERCR

IC50 in kinase assay (M), IGF-1R kinase activation by 10 nM IGF-1 [6]: 1e-06 M
B18: F167 (peptide)
peptide: EDWLRCLGVILSGGLTELANTGCVQGE

IC50 in MCF-7S8, in presence of IGF-1 [7]: 2000 nM
IC50 in SW480 (M) in presence of IGF-1 (IGF-1R on SW480 cells [5]): 2e-06 M
B19: F169 (peptide)
peptide: EFSGFCMGLERLSQVSLGYCGAGQGGE

From patent US20110039779A1 (published 2011)
